Test results reported in paper PMC10410607.

Tests used:
[1] = molecular target: histidine-tagged human C5a (human) (UniProt P01031); assay: SPR; Biacore X100; His-C5a captured on a Ni-activated NTA chip at 25 RU; S512A-ScpA or S512A-79ΔPro flowed at 5.625-90 nM, 30 uL/min, association 180 s, dissociation 200 s; 10 mM HEPES-KOH pH 7.5, 150 mM NaCl, 0.005% Tween 20, 50 uM EDTA; global fit, Langmuir model; triplicates
[2] = molecular target: histidine-tagged human C5a (human) (UniProt P01031); assay: SPR; Biacore X100; His-C5a captured on a Ni-activated NTA chip at 25 RU; S512A-ScpA or S512A-79ΔPro flowed at 5.625-90 nM, 30 uL/min, association 180 s, dissociation 200 s; 10 mM HEPES-KOH pH 7.5, 150 mM NaCl, 0.005% Tween 20, 50 uM EDTA; global fit with a Langmuir model; triplicates

Substance | Kd [1] | Kd [2] | koff [2] | kon [2]
S512A-79ΔPro (active site mutated, propeptide truncated ScpA, amino acids 79-1032) (from UniProt P15926 79-1032) (enzyme) | 25 nM | – | – | –
S512A-79ΔPro, active site mutated propeptide-truncated ScpA (amino acids 79-1032) (from UniProt P15926 79-1032) (enzyme) | – | 35 nM | 0.00467 s⁻¹ | 187000 M⁻¹ s⁻¹
S512A-ScpA (active site mutated Streptococcus pyogenes C5a peptidase, amino acids 32-1032) (from UniProt P15926 32-1032) (enzyme) | 35 nM | – | – | –
S512A-ScpA, active site mutated Streptococcus pyogenes C5a peptidase (amino acids 32-1032) (from UniProt P15926 32-1032) | – | 25 nM | – | –
S512A-ScpA, active site mutated Streptococcus pyogenes C5a peptidase (amino acids 32-1032) (from UniProt P15926 32-1032) (enzyme) | – | – | 0.00638 s⁻¹ | 182000 M⁻¹ s⁻¹
